According to patent publication US20130058955A1 (Genentech, published 2013):
Substitutions are numbered along the chain they refer to. Names and notes keep the numbering of the source. Values joined by “and” are separate entries in the source; they are usually repeats but may differ in a detail not shown here. Equal values may be shown once.

B1: 2H5 IgG (antibody, name in Kabat numbering, V domains shown)
VH: EVQLVESGGGLVQPGGSLRLSCAASGFTFSNTYISWVRQAPGKGLEWVASITPSSGSTDYADSVKGRFTISADTSKNTAYLQMNSLRAEDTAVYYCARTWLLRWVMDYWGQGTLVTVSS
VL: DIQMTQSPSSLSASVGDRVTITCRASQDVSTAVAWYQQKPGKAPKLLIYSASFLYSGVPSRFSGSGSGTDFTLTISSLQPEDFATYYCQQSYTNPPTFGQGTKVEIK
B2: 2C11 IgG (antibody, name in Kabat numbering, V domains shown)
VH: B1 VH
VL: B1 VL with N94Q
B3: 3F5 IgG (antibody, V domains shown)
VH: B1 VH with S57Q
VL: B1 VL with N94T
B4: 1F11/3F5 IgG (antibody, V domains shown)
VH: B1 VH with S57Q
VL: B1 VL with S52K, N94T
notes: also called double mutant 1F11/3F5
B5: 1F11/2H5/3F5 triple mutant IgG (antibody, name in Kabat numbering, V domains shown)
VH: B1 VH with S57Q
VL: B1 VL with S52K
notes: human kappa IgG1
B6: 2C11/3F5 IgG (antibody, name in Kabat numbering, V domains shown)
VH: B1 VH with S57Q
VL: B1 VL with N94Q
B7: 1F11/2C11/3F5 triple mutant IgG (antibody, name in Kabat numbering, V domains shown)
VH: B1 VH with S57Q
VL: B1 VL with S52K, N94Q
notes: human kappa IgG1
B8: 2H5/3F5 IgG (antibody, name in Kabat numbering, V domains shown)
VH: B1 VH with S57Q
VL: B1 VL
B9: 1E3 IgG (antibody, V domains shown)
VH: B1 VH
VL: B1 VL with N94T
notes: also called parental 1E3
B10: 1F11 IgG (antibody, V domains shown)
VH: B1 VH
VL: B1 VL with S52K, N94T
B11: 3F5, Fab displayed on phage (Fab, V domains shown)
VH: B1 VH with S57Q
VL: B1 VL with N94T
notes: Monovalent Fab on M13 phage
B12: 2H5, Fab displayed on phage (Fab, name in Kabat numbering, V domains shown)
VH: B1 VH
VL: B1 VL
notes: Light chain mutant of 1E3 (CDR L3); Monovalent Fab on M13 phage
B13: 2C11, Fab displayed on phage (Fab, name in Kabat numbering, V domains shown)
VH: B1 VH
VL: B1 VL with N94Q
notes: as for B12
B14: 3E4, Fab displayed on phage (Fab, name in Kabat numbering, V domains shown)
VH: B1 VH with I34M
VL: B1 VL with N94T
notes: Heavy chain mutant of 1E3 (CDR H1); Monovalent Fab on M13 phage
B15: 4G7, Fab displayed on phage (Fab, name in Kabat numbering, V domains shown)
VH: B1 VH with Y108G
VL: B1 VL with N94T
notes: Heavy chain mutant of 1E3 (H3); Monovalent Fab on M13 phage
B16: Y102L IgG (antibody, V domains shown)
VH: B1 VH with Y108L
VL: B1 VL with N94T
notes: human kappa IgG1; also called Y012L
B17: 1F11/Y102L IgG (antibody, V domains shown)
VH: B1 VH with Y108L
VL: B1 VL with S52K, N94T
notes: human kappa IgG1
B18: 1F11, Fab displayed on phage (Fab, V domains shown)
VH: B1 VH
VL: B1 VL with S52K, N94T
notes: Monovalent Fab on M13 phage
B19: 1F11/3E4 double mutant, Fab displayed on phage (Fab, name in Kabat numbering, V domains shown)
VH: B1 VH with I34M
VL: B1 VL with S52K, N94T
B20: 2H5/3E4 double mutant, Fab displayed on phage (Fab, name in Kabat numbering, V domains shown)
VH: B1 VH with I34M
VL: B1 VL
B21: 2H5/4G7 double mutant, Fab displayed on phage (Fab, name in Kabat numbering, V domains shown)
VH: B1 VH with Y108G
VL: B1 VL
B22: 1F11/4G7 double mutant, Fab displayed on phage (Fab, name in Kabat numbering, V domains shown)
VH: B1 VH with Y108G
VL: B1 VL with S52K, N94T
B23: 2C11/4G7 double mutant, Fab displayed on phage (Fab, name in Kabat numbering, V domains shown)
VH: B1 VH with Y108G
VL: B1 VL with N94Q
B24: 2C11/3E4 double mutant, Fab displayed on phage (Fab, name in Kabat numbering, V domains shown)
VH: B1 VH with I34M
VL: B1 VL with N94Q

The binders below were run against T1, K63-linked diubiquitin (Boston Biochem) (human, UniProt P0CG48 1-76, isopeptide bond between the C-terminus of one ubiquitin and Lys63 of the other) (assay: western blot, 1 ug/mL IgG, LI-COR Odyssey).
T1 construct: Bought product; also called K63 diUb
Procedure: (§1) Gels were transferred at 30 V constant for 1 hour by wet transfer in 10% methanol and 1× NuPAGE transfer buffer (Invitrogen) to 0.2 μm nitrocellulose (Invitrogen). Non-specific binding sites on the membranes were blocked by incubation in 5% milk in PBST for 1 hour at 25° C. with shaking. […] The membranes were washed three times in PBST with shaking. The IgGs were detected by incubating the membrane in a 1:10,000 dilution of a goat anti-human Fc fragment-specific IR Dye 800CW-conjugated secondary antibody (Rockland Immunochemicals) in 5% milk in PBST for 30 minutes at 25° C. with shaking. The membranes were then washed three times in PBST followed by one wash in PBS. The secondary antibody was detected and quantified using the L1-COR Odyssey infrared imaging system (L1-COR Biosciences).
B1: no binding (tested: 1000 ng per lane).
B2: no binding (tested: 1000 ng per lane).
B3: no binding (tested: 1000 ng per lane).
B4: no binding (tested: 1000 ng per lane).

Target: T1, K63-linked diubiquitin (Boston Biochem)
Test: western blot, 1 ug/mL IgG, LI-COR Odyssey
Remark: another data set of the same source
B5: no binding (tested: 1000 ng per lane).
B6: no binding (tested: 1000 ng per lane).
B7: no binding (tested: 1000 ng per lane).
B8: no binding (tested: 1000 ng per lane).

Each binder was assayed against T2, linear diubiquitin (Boston Biochem) (human, UniProt P0CG48 1-152) (assay: western blot, 1 ug/mL IgG, LI-COR Odyssey quantification; Ub2 bands seen at 333 (faint) and 1000 ng).
T2 construct: Bought product
Procedure: as §1
With B9 the “signal of the Ub2 band at 1000 ng linear diUb (number under the arrow)” value (“signal of the Ub2 band” below) was 8.7.
For B10, the “signal of the Ub2 band” value was 13.1.
B1 was tested, and the “signal of the Ub2 band” value was 10.4.
In the case of B2, the “signal of the Ub2 band” value is reported as 10.8.

These binders were tested against T3, monoubiquitin (Boston Biochem) (human, UniProt P0CG48 1-76) (assay: phage specificity ELISA, 1 ug/mL coated antigen, anti-M13-HRP).
T3 construct: Bought product
Procedure: (§2) The panel of ubiquitin proteins was immobilized on 96-well Maxisorb immunoplates (NUNC) (see FIGS. 7A and 7B). Plates were coated at 4° C. overnight with 1 μg/mL of each protein in 50 mM sodium carbonate buffer, pH 9.6. The coated plates were blocked with 200 μL/well of 2.5% milk in PBST for one hour at 25° C. with shaking. Six two-fold serial dilutions of phage from OD₂₆₈=1.0 to OD₂₆₈=0.03 were made in 2.5% milk in PBST. After one hour, the blocking buffer was dumped off of the plate and 100 μL of the phage serial dilutions was added. Plates were incubated at 25° C. for one hour with shaking. The plate was then washed six times with PBST using a plate washer. A 1:5,000 dilution of an anti-M13 horseradish peroxidase (HRP)-conjugated secondary antibody (GE Healthcare) in PBST was used for detection of phage binding. […] The plate was then washed six times with PBST using a plate washer and twice manually with PBS. Bound secondary antibody was detected using a TMB substrate (KPL) followed by quenching with an equal volume of 1 M phosphoric acid. The absorbance was read at 450 nm.
B11: no binding (tested: phage OD268 1).
B12: no binding (tested: phage OD268 1).
B13: no binding (tested: phage OD268 1).
B14: no binding (tested: phage OD268 1).
B15: no binding (tested: phage OD268 1).

Each binder was assayed against T4, K11-linked diubiquitin (Genentech) (human, UniProt P0CG48 1-76, isopeptide bond between the C-terminus of one ubiquitin and Lys11 of the other) in the same assay as above.
T4 construct: also called K11 diUb
Procedure: as §2
B11: no binding (tested: phage OD268 1).
B12: no binding (tested: phage OD268 1).
B13: no binding (tested: phage OD268 1).
B14: no binding (tested: phage OD268 1).
B15: no binding (tested: phage OD268 1).

These binders were tested against T5, K48-linked diubiquitin (Boston Biochem) (human, UniProt P0CG48 1-76, isopeptide bond between the C-terminus of one ubiquitin and Lys48 of the other) in the same assay as above.
T5 construct: Bought product; also called K48 diUb
Procedure: as §2
B11: no binding (tested: phage OD268 1).
B12: no binding (tested: phage OD268 1).
B13: no binding (tested: phage OD268 1).
B14: no binding (tested: phage OD268 1).
B15: no binding (tested: phage OD268 1).

These binders were tested against T2, linear diubiquitin (Boston Biochem) (assay: western blot, 1 ug/mL IgG, LI-COR Odyssey quantification; Ub2 bands seen at 111 (faint), 333 and 1000 ng).
For B16, the “signal of the Ub2 band” value was 5.4.
In the case of B17, the “signal of the Ub2 band” value is reported as 5.3.

Target: T2, linear diubiquitin (Boston Biochem)
Test: as above
Remark: another data set of the same source
Procedure: as §1
B3 was tested, and the “signal of the Ub2 band” value was 16.4.
For B6, the “signal of the Ub2 band” value was 13.1.
With B8 the “signal of the Ub2 band” value was 16.7.

These binders were tested against T2, linear diubiquitin (Boston Biochem) (assay: phage IC50 competition ELISA with soluble linear diubiquitin).
Procedure: An initial titer ELISA was done to determine the amount of phage at which a signal of OD₄₅₀=0.5 would be achieved. […] The coated plates were blocked with 200 μL/well of 2.5% milk in PBST for one hour at 25° C. with shaking. Twelve two-fold serial dilutions of the phage were made in 2.5% milk in PBST from OD₂₆₈=4.0 to OD₂₆₈=0.002. After one hour, the blocking buffer was dumped off of the plate and 100 μL/well of each phage dilution was added and incubated at 25° C. for 15 minutes with shaking. The plate was then washed six times with PBST using a plate washer. A 1:5000 dilution of an anti-M13 phage-HRP-conjugated secondary antibody (GE Healthcare) in PBST was used for detection of phage binding. 100 μL/well of the secondary dilution was added and the plate was incubated at 25° C. for 30 minutes with shaking. The plate was then washed 12 times with PBST using a plate washer and twice with PBS manually. Bound secondary antibody was detected using a TMB substrate (KPL) followed by quenching with an equal volume of 1 M phosphoric acid.
B11 was tested, and the IC50 was 12 nM and 9 nM and 13 nM.
Binder B12 has an IC50 of 17 nM.
In the case of B18, the IC50 is reported as 14 nM.
With B19 the IC50 was 12 nM.
B20 showed an IC50 of 26 nM.
In the case of B21, the IC50 is reported as 23 nM.
In the case of B13, the IC50 is reported as 20 nM.
With B22 the IC50 was 13 nM.
In the case of B14, the IC50 is reported as 44 nM and 33 nM and 26 nM.
In the case of B15, the IC50 is reported as 23 nM and 16 nM and 19 nM.
In the case of B23, the IC50 is reported as 31 nM.
With B24 the IC50 was 24 nM.
